Assays:
[1] = target: DDA1 (human, UniProt Q9BW61 1-102); assay: cryo-EM structure
[2] = target: Full-length DDB1-DET1-DDA1 complex co-expressed with Ube2e2 (human, UniProt Q7L5Y6;Q16531;Q9BW61); assay: SEC
[3] = target: the molecule itself; assay: multiple angle light scattering

Sequence of Full-length DDB1-DET1-DDA1 complex co-expressed with Ube2e2 (Q7L5Y6 whole entry, one chain of several): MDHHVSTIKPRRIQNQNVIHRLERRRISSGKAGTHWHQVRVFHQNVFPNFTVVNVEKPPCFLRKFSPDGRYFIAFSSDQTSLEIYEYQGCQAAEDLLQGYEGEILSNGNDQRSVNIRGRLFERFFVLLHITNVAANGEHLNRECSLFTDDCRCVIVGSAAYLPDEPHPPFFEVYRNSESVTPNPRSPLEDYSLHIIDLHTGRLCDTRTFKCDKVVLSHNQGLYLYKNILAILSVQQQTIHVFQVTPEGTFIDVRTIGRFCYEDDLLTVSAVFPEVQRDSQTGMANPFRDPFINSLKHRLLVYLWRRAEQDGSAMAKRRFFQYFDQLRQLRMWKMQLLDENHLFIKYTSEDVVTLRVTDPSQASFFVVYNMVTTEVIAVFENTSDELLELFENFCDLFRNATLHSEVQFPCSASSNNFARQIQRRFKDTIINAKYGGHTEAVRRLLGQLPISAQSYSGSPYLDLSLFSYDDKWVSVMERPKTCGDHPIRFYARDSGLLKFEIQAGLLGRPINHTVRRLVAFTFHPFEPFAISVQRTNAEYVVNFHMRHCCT

B1: DDB1(ΔBPB) (natural protein)
chain: MSYNYVVTAQKPTAVNGCVTGHFTSAEDLNLLIAKNTRLEIYVVTAEGLRPVKEVGMYGKIAVMELFRPKGESKDLLFILTAKYNACILEYKQSGESIDIITRAHGNVQDRIGRPSETGIIGIIDPECRMIGLRLYDGLFKVIPLDRDNKELKAFNIRLEELHVIDVKFLYGCQAPTICFVYQDPQGRHVKTYEVSLREKEFNKGPWKQENVEAEASMVIAVPEPFGGAIIIGQESITYHNGDKYLAIAPPIIKQSTIVCHNRVDPNGSRYLLGDMEGRLFMLLLEKEEQMDGTVTLKDLRVELLGETSIAECLTYLDNGVVFVGSRLGDSQLVKLNVDSNEQGSYVVAMETFTNLGPIVDMCVVDLERQGQGQLVTCSGAFKEGSLRIIRNGIGIQKLHIRTVPLYESPRKICYQEVSQCFGVLSSRIEVQDTSGGTTALRPSASTQALSSSVSSSKLFSSSTAPHETSFGEEVEVHNLLIIDQHTFEVLHAHQFLQNEYALSLVSCKLGKDPNTYFIVGTAMVYPEEAEPKQGRIVVFQYSDGKLQTVAEKEVKGAVYSMVEFNGKLLASINSTVRLYEWTTEKELRTECNHYNNIMALYLKTKGDFILVGDLMRSVLLLAYKPMEGNFEEIARDFNPNWMSAVEILDDDNFLGAENAFNLFVCQKDSAATTDEERQHLQEVGLFHLGEFVNVFCHGSLVMQNLGETSTPTQGSVLFGTVNGMIGLVTSLSESWYNLLLDMQNRLNKVIKSVGKIEHSFWRSFHTERKTEPATGFIDGDLIESFLDISRPKMQEVVANLQYDDGSGMKREATADDLIKVVEELTRIH
- binding result [1]: binds

B2: Full-length Ube2e2 co-expressed with the DDD complex (enzyme)
chain: MSTEAQRVDDSPSTSGGSSDGDQRESVQQEPEREQVQPKKKEGKISSKTAAKLSTSAKRIQKELAEITLDPPPNCSAGPKGDNIYEWRSTILGPPGSVYEGGVFFLDITFSPDYPFKPPKVTFRTRIYHCNINSQGVICLDILKDNWSPALTISKVLLSICSLLTDCNPADPLVGSIATQYMTNRAEHDRMARQWTKRYAT
- binding result [2]: binds

B3: COP1 RING domain (residues 126 to 208) (domain or fragment)
chain: SYEDKSNDFVCPICFDMIEEAYMTKCGHSFCYKCIHQSLEDNNRCPKCNYVVDNIDHLYPNFLVNELILKQKQRFEEKRFKLD
- stoichiometry N [3]: 2

— paper PMC11864197 (Science Advances, 2025)
